Source: US20200024322A1 (Eli Lilly, published 2020)
Substitutions are numbered along the chain they refer to. Numbered stars: 1 amine (or outer) side, 2 acyl side, 3 side chain; on linkers, the order of the positions; unused ones are H or OH. Square brackets hold non-standard residues; d marks the D form. Side chains are listed from the residue outwards. Ends that are not written are not given here. * marks the point of attachment. C20 diacid = O=C(O)CCCCCCCCCCCCCCCCCCC(=O)*; γGlu = O=C(O)[C@H](CCC(=O)[*:2])N[*:1]; AEEA = NCCOCCOCC(=O)O; Aib = CC(C)(N)C(=O)O

T1: human GIP receptor (human, UniProt P48546 22-466)
T1 construct: whole, on cells; Used as crude membranes of stably transfected CHO cells; also called hGIPR
T1 sequence (looked up): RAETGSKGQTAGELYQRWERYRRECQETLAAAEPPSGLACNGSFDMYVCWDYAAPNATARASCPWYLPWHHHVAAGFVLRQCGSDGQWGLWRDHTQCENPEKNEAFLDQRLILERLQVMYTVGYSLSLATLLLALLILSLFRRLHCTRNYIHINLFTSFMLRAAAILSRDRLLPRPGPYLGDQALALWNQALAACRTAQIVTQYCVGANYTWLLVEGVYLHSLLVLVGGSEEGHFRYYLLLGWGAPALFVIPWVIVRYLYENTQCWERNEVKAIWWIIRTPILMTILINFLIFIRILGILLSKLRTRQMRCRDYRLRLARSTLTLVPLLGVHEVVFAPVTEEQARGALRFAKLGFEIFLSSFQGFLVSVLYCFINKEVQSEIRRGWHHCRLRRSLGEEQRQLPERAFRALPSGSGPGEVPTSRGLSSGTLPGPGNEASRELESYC

B1: Example 139 (peptide)
peptide: YXEGTXTSDYSIXLDKKAQXTFIEYLIEGGPSSGAPPPS
modifications: Aib2; αMeF6; αMeL13; K17((2-[2-(2-Amino-ethoxy)-ethoxy]-acetyl)2-(γ-Glu)-CO-(CH2)18-CO2H); Aib20; C-terminal NH2
B2: Example 134 (peptide)
peptide: B1 peptide with Y1X, K16E, T21E
modifications: DesTyr1; Aib2; αMeF(2F)6; αMeL13; K17((2-[2-(2-Amino-ethoxy)-ethoxy]-acetyl)2-(γ-Glu)-CO-(CH2)18-CO2H); Aib20; C-terminal NH2
B3: Example 13 (peptide)
peptide: Y[Aib]EGTFTSDYSILLD[Aib]IAQK([AEEA-AEEA-γGlu-C20 diacid])AFIEYLIEGGPSSGAPPPS-NH2
modifications: N-terminus assumed
SMILES: CC[C@H](C)[C@H](NC(=O)[C@H](CC(C)C)NC(=O)[C@H](Cc1ccc(O)cc1)NC(=O)[C@H](CCC(=O)O)NC(=O)[C@@H](NC(=O)[C@H](Cc1ccccc1)NC(=O)[C@H](C)NC(=O)[C@H](CCCCNC(=O)COCCOCCNC(=O)COCCOCCNC(=O)CC[C@H](NC(=O)CCCCCCCCCCCCCCCCCCC(=O)O)C(=O)O)NC(=O)[C@H](CCC(N)=O)NC(=O)[C@H](C)NC(=O)[C@@H](NC(=O)C(C)(C)NC(=O)[C@H](CC(=O)O)NC(=O)[C@H](CC(C)C)NC(=O)[C@H](CC(C)C)NC(=O)[C@@H](NC(=O)[C@H](CO)NC(=O)[C@H](Cc1ccc(O)cc1)NC(=O)[C@H](CC(=O)O)NC(=O)[C@H](CO)NC(=O)[C@@H](NC(=O)[C@H](Cc1ccccc1)NC(=O)[C@@H](NC(=O)CNC(=O)[C@H](CCC(=O)O)NC(=O)C(C)(C)NC(=O)[C@@H](N)Cc1ccc(O)cc1)[C@@H](C)O)[C@@H](C)O)[C@@H](C)CC)[C@@H](C)CC)[C@@H](C)CC)C(=O)N[C@@H](CCC(=O)O)C(=O)NCC(=O)NCC(=O)N1CCC[C@H]1C(=O)N[C@@H](CO)C(=O)N[C@@H](CO)C(=O)NCC(=O)N[C@@H](C)C(=O)N1CCC[C@H]1C(=O)N1CCC[C@H]1C(=O)N1CCC[C@H]1C(=O)N[C@@H](CO)C(N)=O
B4: Example 29 (peptide)
peptide: Y[Aib]EGTFTSDYSILLDK([AEEA-AEEA-γGlu-C20 diacid])IAQ[Aib]AFIEYLIEGGPSSGAPPPS-NH2
modifications: N-terminus assumed
SMILES: CC[C@H](C)[C@H](NC(=O)[C@H](CCCCNC(=O)COCCOCCNC(=O)COCCOCCNC(=O)CC[C@H](NC(=O)CCCCCCCCCCCCCCCCCCC(=O)O)C(=O)O)NC(=O)[C@H](CC(=O)O)NC(=O)[C@H](CC(C)C)NC(=O)[C@H](CC(C)C)NC(=O)[C@@H](NC(=O)[C@H](CO)NC(=O)[C@H](Cc1ccc(O)cc1)NC(=O)[C@H](CC(=O)O)NC(=O)[C@H](CO)NC(=O)[C@@H](NC(=O)[C@H](Cc1ccccc1)NC(=O)[C@@H](NC(=O)CNC(=O)[C@H](CCC(=O)O)NC(=O)C(C)(C)NC(=O)[C@@H](N)Cc1ccc(O)cc1)[C@@H](C)O)[C@@H](C)O)[C@@H](C)CC)C(=O)N[C@@H](C)C(=O)N[C@@H](CCC(N)=O)C(=O)NC(C)(C)C(=O)N[C@@H](C)C(=O)N[C@@H](Cc1ccccc1)C(=O)N[C@H](C(=O)N[C@@H](CCC(=O)O)C(=O)N[C@@H](Cc1ccc(O)cc1)C(=O)N[C@@H](CC(C)C)C(=O)N[C@H](C(=O)N[C@@H](CCC(=O)O)C(=O)NCC(=O)NCC(=O)N1CCC[C@H]1C(=O)N[C@@H](CO)C(=O)N[C@@H](CO)C(=O)NCC(=O)N[C@@H](C)C(=O)N1CCC[C@H]1C(=O)N1CCC[C@H]1C(=O)N1CCC[C@H]1C(=O)N[C@@H](CO)C(N)=O)[C@@H](C)CC)[C@@H](C)CC

Each binder was assayed against T1, human GIP receptor (assay: SPA, [125I]-GIP displacement, hGIPR membranes).
With B1 the Ki was 0.036 nM.
With B2 the Ki was 0.14 nM.
For B3, the Ki was 0.296 nM.
B4 was tested, and the Ki was 0.377 nM.

The binders below were run against T2, human glucagon receptor (human, UniProt P47871 26-477) (assay: SPA, [125I]-Gcg displacement, hGcgR membranes).
T2 construct: whole, on cells; Used as crude membranes of stably transfected HEK293 cells; also called hGcgR; hGLcgR
T2 sequence (P47871 26-477): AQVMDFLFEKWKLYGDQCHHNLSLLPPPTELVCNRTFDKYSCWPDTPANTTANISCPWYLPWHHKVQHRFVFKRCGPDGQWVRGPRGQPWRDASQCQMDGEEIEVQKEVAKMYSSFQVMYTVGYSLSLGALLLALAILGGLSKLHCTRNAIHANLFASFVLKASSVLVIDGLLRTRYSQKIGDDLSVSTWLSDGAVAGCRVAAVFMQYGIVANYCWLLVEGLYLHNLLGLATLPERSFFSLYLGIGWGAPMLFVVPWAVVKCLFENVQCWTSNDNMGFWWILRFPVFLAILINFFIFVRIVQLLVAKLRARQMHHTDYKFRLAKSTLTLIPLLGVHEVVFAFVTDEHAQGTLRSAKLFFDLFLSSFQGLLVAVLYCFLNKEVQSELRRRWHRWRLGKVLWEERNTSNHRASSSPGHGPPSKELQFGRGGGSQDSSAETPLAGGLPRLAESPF
B1 showed a Ki of 105 nM.
Work on B2 yielded a Ki of 60.5 nM.
For B4, the Ki was 132 nM.

These binders were tested against T3, human GLP-1 receptor (human, UniProt P43220 24-463) (assay: SPA, [125I]-GLP-1 displacement, hGLP-1R membranes).
T3 construct: whole, on cells; Used as crude membranes of stably transfected HEK293 cells; also called hGLP1R; hGLP-1R
For B3, the Ki was 31.1 nM.
In the case of B4, the Ki is reported as 8 nM.
